Measurements published in US20230158179A1 (RAYZEBIO, published 2023).
Blank lines part the entries; values can stand above or below the binder they belong to. Bridge positions count the residues as written; N and C are the ends. Square brackets hold non-standard residues; d marks the D form. Phe(3-Ph) = N[C@@H](Cc1cccc(-c2ccccc2)c1)C(=O)O; Bip = N[C@@H](Cc1ccc(-c2ccccc2)cc1)C(=O)O; Phe(3-Cl) = N[C@@H](Cc1cccc(Cl)c1)C(=O)O; NMeY = CN[C@@H](Cc1ccc(O)cc1)C(=O)O; NMeF = CN[C@@H](Cc1ccccc1)C(=O)O; Cba = N[C@@H](CC1CCC1)C(=O)O; Chg = N[C@H](C(=O)O)C1CCCCC1

Experiments:
[1] = biological target: T1, FOLR1 on FOLR1 expressing cells (IGROV1) (UniProt P15328 25-234, limits assumed); assay: flow cytometry on IGROV1 cells in human plasma/PBS, detection with SA-647; grade legend paragraph 454: 0 nM < A <= 100 nM
T1 construct: whole, on cells; also called folate receptor 1

[2] = biological target: T2, FOLR1-Fc-Avi (AcroBiosystems, F01-H82F9) (UniProt P15328 25-234, biotinylated (immobilised by streptavidin-biotin chemistry)); assay: SPR, Biacore 8K, FOLR1-Fc-Avi immobilised, single cycle kinetics, 1:1 model; grade legend paragraph 444: 0 nM < A <= 10 nM
T2 construct: Bought reagent; also called folate receptor 1
Procedure: For analysis of peptide binding, a Biacore 8K instrument was used utilizing either a SA chip or a CAP chip. FOLR1-Fc-Avi (AcroBiosystems, F01-H₈₂F9) was immobilized on the chip using streptavidin-biotin chemistry at 25° C. in PBS-P+ buffer (20 mM phosphate, 2.7 mM KCl, 137 mM NaCl, 0.05% Tween-20, pH 7.4) to a level of 500-2500 RU (dependent on the analyte molecular weight). A dilution series of peptides was prepared in this buffer with a final DMSO concentration of 1% with a top peptide concentration at 50 or 100 nM and 8 further 2-fold dilutions. The SPR analysis was run at 25° C. at a flow rate of 100 μL/min in PBS-P+ with 1% DMSO running buffer and with a 120 second association and 10,000 second dissociation using single cycle kinetics methodology. All data was analyzed using Biacore Insight Evaluation Software version 3.) Data was fitted using a Langmuir 1:1 binding model.

Human Serum Albumin = biological target: T3, Human Serum Albumin (human, UniProt P02768 25-609); assay: HSA-HPLC, immobilised HSA column, estimated from retention time; grade legend paragraph 440: 90% < A <= 100%
T3 construct: Immobilised on the HPLC column; also called HSA
Source text: HSA-HPLC method (measurement of drug protein binding by immobilized human serum albumin-HPLC). A 13-minute HPLC (Thermo Vanquish Horizon with Diode Array Detector) gradient method was used to determine the HSA (Human Serum Albumin) binding of novel compounds using a chemically bonded protein stationary phase (ChiralPAK HSA HPLC column, 50×4 mm). The HSA binding values were derived from the gradient retention times that were converted to the logarithm of the equilibrium constant using data from a calibration set of molecules. The % bound to plasma values for the calibrator compounds were converted to the linear free energy values using the following equation: LogK=log[% PPB/(101−% PPB)]. The logarithmic value of the gradient retention times from the experiment were plotted against the linearized values of the percent bound to plasma. The slope and the intercept were used to convert the retention times to linear free energy values (LogK), from which the estimated % protein binding was calculated using the following equation: % Binding=[(101·10^LogK)/(1+10^LogK)]. Aqueous mobile phase (A) was 50 mM ammonium acetate solution, ph7.4 and the organic mobile phase (B) was 2-propanol. The flow rate was set at 0.350mL/min and injection volume was 5 uL, with samples prepared at 0.5 mg/mL concentration in 50:50 mobile phase. The initial LC conditions were conducted at room temperature, set at 0% B and ramped to 50% B over 8.5 minutes, then held at 50% B for 1.5 minutes before going back to initial conditions and re-equilibrating the column for 2.5 minutes. Chromatograms were recorded at 280 nm by a diode array UV absorption detector.

[3] = biological target: T4, Trop-2 on Trop-2 expressing cells (A431) (UniProt P09758 27-323, limits assumed); assay: flow cytometry on A431 cells, procedure of the PSMA cell assay; grade legend paragraph 462: 0 nM < A <= 100 nM
T4 construct: whole, on cells; also called tumor-associated calcium signal transducer 2
T4 sequence (looked up): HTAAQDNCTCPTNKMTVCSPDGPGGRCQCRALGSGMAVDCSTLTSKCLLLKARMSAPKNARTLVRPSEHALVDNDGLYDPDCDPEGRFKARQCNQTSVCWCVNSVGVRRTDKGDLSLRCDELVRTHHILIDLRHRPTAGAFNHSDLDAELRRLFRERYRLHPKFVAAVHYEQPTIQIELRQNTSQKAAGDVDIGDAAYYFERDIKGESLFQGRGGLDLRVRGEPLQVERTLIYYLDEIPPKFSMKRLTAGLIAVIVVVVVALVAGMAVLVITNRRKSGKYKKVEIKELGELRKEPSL

[4] = biological target: T5, PSMA on PSMA expressing cells (LnCap) (UniProt Q04609 1-750, limits assumed); assay: flow cytometry on LnCap cells, biotinylated compound, detection with SA-A647; grade legend paragraph 460: 0 nM < A <= 100 nM
T5 construct: whole, on cells; also called prostate-specific membrane antigen

[5] = biological target: T6, His-Avi-PSMA (AcroBiosystems, PSA-H82Qb) (UniProt Q04609 44-750, biotinylated (immobilised by streptavidin-biotin chemistry)); assay: SPR, Biacore 8K, His-Avi-PSMA immobilised, single cycle kinetics, 1:1 model; grade legend paragraph 447: 0 nM < A <= 10 nM
T6 construct: Bought reagent; also called prostate-specific membrane antigen
Procedure: For analysis of peptide binding, a Biacore 8K instrument was used utilizing a SA chip. His-Avi-PSMA (AcroBiosystems, PSA-H82Qb) was immobilized on the chip using streptavidin-biotin chemistry at 25° C. in HBS-P+ buffer (10 mM HEPES, 150 mM NaCl, 0.05% Tween-20, pH 7.4) to a level of 800-2200 RU (dependent on the analyte molecular weight). A dilution series of peptides was prepared in this buffer with a final DMSO concentration of 1% with a top peptide concentration between 10-100 nM and 8 further 2-fold dilutions. The SPR analysis was run at 25° C. at a flow rate of 100 μL/min in HBS-P+ with 1% DMSO running buffer and with a 120 second association and 10,000 second dissociation using single cycle kinetics methodology. All data was analyzed using Biacore Insight Evaluation Software version 3. Data was fitted using a Langmuir 1:1 binding model.

T2 sequence (P15328 25-234 limits assumed): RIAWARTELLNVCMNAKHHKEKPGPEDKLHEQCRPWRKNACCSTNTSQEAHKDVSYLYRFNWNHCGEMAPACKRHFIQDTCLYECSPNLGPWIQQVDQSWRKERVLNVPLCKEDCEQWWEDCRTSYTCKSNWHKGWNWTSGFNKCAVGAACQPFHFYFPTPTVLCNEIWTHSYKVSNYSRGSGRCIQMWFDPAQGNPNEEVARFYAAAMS
T1 sequence (P15328 25-234 limits assumed): as above
T6 sequence (Q04609 44-750 limits assumed): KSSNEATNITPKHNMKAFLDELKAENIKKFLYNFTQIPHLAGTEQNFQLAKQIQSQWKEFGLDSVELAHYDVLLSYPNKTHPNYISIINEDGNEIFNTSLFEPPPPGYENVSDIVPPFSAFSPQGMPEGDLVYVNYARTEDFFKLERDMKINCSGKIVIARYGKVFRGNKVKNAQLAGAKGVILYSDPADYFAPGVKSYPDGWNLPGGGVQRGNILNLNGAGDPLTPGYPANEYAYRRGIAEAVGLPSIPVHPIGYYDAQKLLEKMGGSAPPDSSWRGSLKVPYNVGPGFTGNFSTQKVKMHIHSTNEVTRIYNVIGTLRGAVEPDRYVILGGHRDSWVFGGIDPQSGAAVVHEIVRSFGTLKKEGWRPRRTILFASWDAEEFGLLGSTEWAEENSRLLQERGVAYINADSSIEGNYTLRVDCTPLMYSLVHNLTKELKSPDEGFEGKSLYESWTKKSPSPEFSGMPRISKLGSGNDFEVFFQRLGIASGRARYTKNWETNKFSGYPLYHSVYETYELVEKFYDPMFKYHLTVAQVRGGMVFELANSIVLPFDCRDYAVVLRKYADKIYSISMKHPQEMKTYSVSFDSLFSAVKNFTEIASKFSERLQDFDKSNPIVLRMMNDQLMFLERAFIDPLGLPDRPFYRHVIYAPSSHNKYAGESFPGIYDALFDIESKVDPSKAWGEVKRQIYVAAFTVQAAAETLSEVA
T5 sequence (Q04609 whole entry): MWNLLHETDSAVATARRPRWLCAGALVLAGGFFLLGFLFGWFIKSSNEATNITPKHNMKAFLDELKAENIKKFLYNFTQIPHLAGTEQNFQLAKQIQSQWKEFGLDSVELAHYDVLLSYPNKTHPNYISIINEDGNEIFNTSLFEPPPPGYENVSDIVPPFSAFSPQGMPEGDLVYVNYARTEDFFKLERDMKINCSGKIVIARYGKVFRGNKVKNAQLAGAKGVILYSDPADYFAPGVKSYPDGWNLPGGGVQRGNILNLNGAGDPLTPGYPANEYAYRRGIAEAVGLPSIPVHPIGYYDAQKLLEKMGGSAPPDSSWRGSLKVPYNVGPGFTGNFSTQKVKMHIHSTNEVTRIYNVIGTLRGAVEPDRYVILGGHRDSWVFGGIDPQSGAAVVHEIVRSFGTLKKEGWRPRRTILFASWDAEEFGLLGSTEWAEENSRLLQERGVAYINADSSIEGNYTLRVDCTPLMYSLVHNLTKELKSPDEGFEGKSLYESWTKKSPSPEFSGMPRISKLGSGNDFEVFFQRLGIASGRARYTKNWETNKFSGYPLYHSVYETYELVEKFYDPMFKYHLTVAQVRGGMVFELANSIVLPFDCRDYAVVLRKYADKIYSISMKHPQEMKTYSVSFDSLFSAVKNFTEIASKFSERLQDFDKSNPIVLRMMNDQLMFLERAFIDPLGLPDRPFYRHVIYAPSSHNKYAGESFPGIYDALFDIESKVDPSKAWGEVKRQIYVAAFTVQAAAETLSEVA

EC50 [1]: ≤ 100 nM | Kd [2]: ≤ 10 nM | % Bound to HSA at r.t. (Human Serum Albumin): > 90%
B1: P-10 (peptide)
peptide: ARL[NMeF]DYDT[NMeY][NMeY]WYC-NH2
modifications: bridge N-13; not fully specified (N-terminus, bridges)
notes: The cell assay detects with SA-647, so a biotinylated form was used

EC50 [1]: ≤ 100 nM | Kd [2]: ≤ 10 nM | % Bound to HSA at r.t. (Human Serum Albumin): > 90%
B2: P-11 (peptide)
peptide: DR[Chg][NMeF]D[Phe(3-Cl)]DT[NMeY][NMeY]WYC-NH2
modifications: bridge N-13; not fully specified (N-terminus, bridges)
notes: as for B1

% Bound to HSA at r.t. (Human Serum Albumin): > 90% | EC50 [3]: ≤ 100 nM
B3: P-40 (peptide)
peptide: [dA]D[Bip]IYPA[Bip]SSES[NMeF]C-NH2
modifications: bridge N-14; not fully specified (N-terminus, bridges)
notes: The cell assay followed the procedure with biotinylated compounds

EC50 [4]: ≤ 100 nM | % Bound to HSA at r.t. (Human Serum Albumin): > 90% | Kd [5]: ≤ 10 nM
B4: P-21 (peptide)
peptide: W[Phe(3-Ph)]DVDSD[Cba]W[Phe(3-Ph)]DC-NH2
modifications: bridge N-12; not fully specified (N-terminus, bridges)

Kd [2]: ≤ 10 nM | % Bound to HSA at r.t. (Human Serum Albumin): > 90%
B5: P-12 (peptide)
peptide: DR[Chg][NMeF]DYDT[NMeY][NMeY]WYC-NH2
modifications: bridge N-13; not fully specified (N-terminus, bridges)
